The values that follow come from the MegaScale stability set (Tsuboyama et al. 2023).

B1: EEHEE_rd3_0130 (parent)
chain: TKIIVNGKTFTAPTEEEAQKIAEKLAKKAGLTVHKKNGTFELK
B2: r11_951_TrROS_Hall (parent)
chain: KKKYVIKVYFEDTGKEVEIEAESKEEALEAAKRLAEELGLKIKKVEIYP

In one data set the parent is B1. In words: folding stability dG (cDNA display proteolysis); higher = more stable. Particulars: PBS, room temperature.
Turning to A18L, the “folding stability dG” value is -0.286 kcal/mol.

In the case of V33K, the “folding stability dG” value is -0.149 kcal/mol.

As for N6Y, the “folding stability dG” value stood at 1.42 kcal/mol.

Consider V5N, for which the “folding stability dG” value is -0.497 kcal/mol.

As for V5L, the “folding stability dG” value worked out at 0.73 kcal/mol.

Take V5F: the “folding stability dG” value worked out at 1.31 kcal/mol.

With L42Y, the “folding stability dG” value is 0.019 kcal/mol.

Turning to I4L, the “folding stability dG” value stood at 0.583 kcal/mol.

With N37I, the “folding stability dG” value was -0.193 kcal/mol.

As for G30Q, the “folding stability dG” value is 0.163 kcal/mol.

Regarding F40P, the “folding stability dG” value came out at 0.146 kcal/mol.

Consider K43F, for which the “folding stability dG” value amounted to 1.13 kcal/mol.

Turning to K43H, the “folding stability dG” value is 0.826 kcal/mol.

On to E23G, for which the “folding stability dG” value is 0.246 kcal/mol.

T32E: the “folding stability dG” value worked out at 0.222 kcal/mol.

For T9A, the “folding stability dG” value is 0.394 kcal/mol.

Turning to T9G, the “folding stability dG” value was -0.452 kcal/mol.

As for T1S, the “folding stability dG” value was 0.636 kcal/mol.

Turning to T1D, the “folding stability dG” value is -0.934 kcal/mol.

Regarding E16K, the “folding stability dG” value was 0.756 kcal/mol.

Turning to E16F, the “folding stability dG” value came out at 0.765 kcal/mol.

For the variant L31A, the “folding stability dG” value was -0.168 kcal/mol.

Regarding L31I, the “folding stability dG” value was -0.35 kcal/mol.

For the variant A26E, the “folding stability dG” value is -0.437 kcal/mol.

Turning to G38S, the “folding stability dG” value is -0.804 kcal/mol.

On to E17W, for which the “folding stability dG” value was 0.923 kcal/mol.

In the case of E17L, the “folding stability dG” value came to 1.25 kcal/mol.

For the variant K2S, the “folding stability dG” value is 0.364 kcal/mol.

As to T11C, the “folding stability dG” value was determined as 1.63 kcal/mol.

On to T11N, for which the “folding stability dG” value is 0.328 kcal/mol.

Regarding T14R, the “folding stability dG” value was -0.419 kcal/mol.

In the case of T14K, the “folding stability dG” value was -0.4 kcal/mol.

Turning to K36A, the “folding stability dG” value was 0.698 kcal/mol.

On to K27M, for which the “folding stability dG” value was 0.725 kcal/mol.

Another data set covers variants of B2. The data set is described as above. The note with it: PBS, room temperature.
For the variant K43H, the “folding stability dG” value amounted to 4.33 kcal/mol.

Turning to K43G, the “folding stability dG” value stood at 4.25 kcal/mol.

Regarding K43P, the “folding stability dG” value came out at 2.93 kcal/mol.

Consider K43L, for which the “folding stability dG” value was determined as 4.36 kcal/mol.

For the variant K43S, the “folding stability dG” value was 4.15 kcal/mol.

Regarding K43I, the “folding stability dG” value amounted to 4.43 kcal/mol.

For the variant K43V, the “folding stability dG” value was 4.22 kcal/mol.

Turning to K43F, the “folding stability dG” value was found to be 4.53 kcal/mol.

In the case of K43M, the “folding stability dG” value turned out to be 4.44 kcal/mol.

Regarding K43C, the “folding stability dG” value worked out at 4.13 kcal/mol.

K43Q: the “folding stability dG” value came out at 4.26 kcal/mol.

K43A: the “folding stability dG” value was 4.4 kcal/mol.

Consider K43D, for which the “folding stability dG” value turned out to be 4.29 kcal/mol.

As for K43W, the “folding stability dG” value stood at 4.81 kcal/mol.

Take K43N: the “folding stability dG” value came out at 4.29 kcal/mol.

With K43R, the “folding stability dG” value was found to be 4.64 kcal/mol.

Turning to K43T, the “folding stability dG” value is 4.32 kcal/mol.

Consider K43E, for which the “folding stability dG” value was determined as 4.35 kcal/mol.

As to L34T, the “folding stability dG” value came to 4.25 kcal/mol.

On to L34R, for which the “folding stability dG” value is 4.32 kcal/mol.

L34I: the “folding stability dG” value came out at 4.27 kcal/mol.

Take L34S: the “folding stability dG” value was determined as 4.01 kcal/mol.

L34C: the “folding stability dG” value is 3.85 kcal/mol.

Regarding L34E, the “folding stability dG” value worked out at 3.68 kcal/mol.

As for L34F, the “folding stability dG” value is 4.52 kcal/mol.

As to L34W, the “folding stability dG” value turned out to be 4.57 kcal/mol.

For the variant L34V, the “folding stability dG” value worked out at 4.51 kcal/mol.

L34A: the “folding stability dG” value stood at 4.16 kcal/mol.

Regarding L34Q, the “folding stability dG” value was found to be 3.99 kcal/mol.

Regarding L34G, the “folding stability dG” value turned out to be 3.15 kcal/mol.

On to L34K, for which the “folding stability dG” value is 4.35 kcal/mol.

With L34Y, the “folding stability dG” value was found to be 4.45 kcal/mol.

L34P: the “folding stability dG” value was determined as 1.34 kcal/mol.

For L34H, the “folding stability dG” value stood at 4.22 kcal/mol.

For the variant L34M, the “folding stability dG” value came to 4.55 kcal/mol.

For the variant L34D, the “folding stability dG” value is 2.95 kcal/mol.

Take L34N: the “folding stability dG” value is 3.66 kcal/mol.

Turning to L40K, the “folding stability dG” value came to 3.93 kcal/mol.

As for L40A, the “folding stability dG” value is 4.02 kcal/mol.

In the case of L40H, the “folding stability dG” value is 4.12 kcal/mol.

Turning to L40N, the “folding stability dG” value was found to be 3.66 kcal/mol.

On to L40F, for which the “folding stability dG” value came to 4.6 kcal/mol.

Turning to L40R, the “folding stability dG” value turned out to be 4.27 kcal/mol.

For L40P, the “folding stability dG” value is 3.02 kcal/mol.

As to L40C, the “folding stability dG” value was found to be 3.95 kcal/mol.

For the variant L40I, the “folding stability dG” value was found to be 3.96 kcal/mol.

Consider L40D, for which the “folding stability dG” value worked out at 3.85 kcal/mol.

With L40T, the “folding stability dG” value came to 3.92 kcal/mol.

With L40M, the “folding stability dG” value stood at 4.31 kcal/mol.

Turning to L40W, the “folding stability dG” value worked out at 4.72 kcal/mol.

For L40Q, the “folding stability dG” value stood at 4.07 kcal/mol.

L40G: the “folding stability dG” value was found to be 3.56 kcal/mol.

On to L40V, for which the “folding stability dG” value is 4.1 kcal/mol.

For the variant L40Y, the “folding stability dG” value was determined as 4.88 kcal/mol.

For the variant L40E, the “folding stability dG” value turned out to be 3.99 kcal/mol.

As to L40S, the “folding stability dG” value turned out to be 3.9 kcal/mol.

With V45A, the “folding stability dG” value was 3.96 kcal/mol.

For the variant V45K, the “folding stability dG” value was determined as 3.16 kcal/mol.

V45L: the “folding stability dG” value worked out at 4.08 kcal/mol.

Turning to V45S, the “folding stability dG” value was found to be 3.94 kcal/mol.

Take V45C: the “folding stability dG” value stood at 4.16 kcal/mol.

V45Y: the “folding stability dG” value worked out at 4.45 kcal/mol.

As to V45H, the “folding stability dG” value was 4.08 kcal/mol.

In the case of V45G, the “folding stability dG” value came out at 2.79 kcal/mol.

As for V45P, the “folding stability dG” value worked out at 2.52 kcal/mol.

As for V45M, the “folding stability dG” value was found to be 4.47 kcal/mol.

For the variant V45R, the “folding stability dG” value was 2.97 kcal/mol.

For the variant V45E, the “folding stability dG” value stood at 3.18 kcal/mol.

Regarding V45F, the “folding stability dG” value was 4.48 kcal/mol.

For the variant V45W, the “folding stability dG” value came out at 4.59 kcal/mol.

Take V45T: the “folding stability dG” value stood at 4.16 kcal/mol.

Take V45I: the “folding stability dG” value worked out at 3.98 kcal/mol.

In the case of V45D, the “folding stability dG” value is 2.62 kcal/mol.

As for V45N, the “folding stability dG” value was found to be 3.32 kcal/mol.

Turning to V45Q, the “folding stability dG” value came to 3.87 kcal/mol.

Take E37Y: the “folding stability dG” value amounted to 4.82 kcal/mol.

As for E37P, the “folding stability dG” value is 2.86 kcal/mol.

Consider E37F, for which the “folding stability dG” value is 4.73 kcal/mol.

Regarding E37H, the “folding stability dG” value worked out at 4.72 kcal/mol.

E37M: the “folding stability dG” value is 4.67 kcal/mol.

For the variant E37D, the “folding stability dG” value came out at 4.29 kcal/mol.

On to E37A, for which the “folding stability dG” value is 4.67 kcal/mol.

Consider E37Q, for which the “folding stability dG” value worked out at 4.77 kcal/mol.

In the case of E37S, the “folding stability dG” value came to 4.71 kcal/mol.

Consider E37C, for which the “folding stability dG” value worked out at 4.94 kcal/mol.

On to E37L, for which the “folding stability dG” value came to 4.55 kcal/mol.

Turning to E37N, the “folding stability dG” value worked out at 4.42 kcal/mol.

Regarding E37G, the “folding stability dG” value was found to be 4.55 kcal/mol.

Consider E37R, for which the “folding stability dG” value was 4.69 kcal/mol.

In the case of E37I, the “folding stability dG” value was determined as 4.61 kcal/mol.

As to E37V, the “folding stability dG” value came to 4.6 kcal/mol.

Take E37K: the “folding stability dG” value is 4.68 kcal/mol.

With E37T, the “folding stability dG” value turned out to be 4.61 kcal/mol.

Consider E46V, for which the “folding stability dG” value was 4.66 kcal/mol.

On to E46R, for which the “folding stability dG” value was 4.16 kcal/mol.

Turning to E46W, the “folding stability dG” value was determined as 4.47 kcal/mol.

As for E46P, the “folding stability dG” value worked out at 2.41 kcal/mol.

Consider E46A, for which the “folding stability dG” value came out at 4.32 kcal/mol.

With E46D, the “folding stability dG” value came to 4.38 kcal/mol.

Consider E46Q, for which the “folding stability dG” value was found to be 4.26 kcal/mol.

For E46M, the “folding stability dG” value was determined as 4.49 kcal/mol.

With E46C, the “folding stability dG” value is 4.15 kcal/mol.

As to E46G, the “folding stability dG” value amounted to 3.71 kcal/mol.

On to E46N, for which the “folding stability dG” value was determined as 4.19 kcal/mol.

As to E46K, the “folding stability dG” value worked out at 4.22 kcal/mol.

In the case of E46Y, the “folding stability dG” value was 4.61 kcal/mol.

For E46L, the “folding stability dG” value is 4.38 kcal/mol.

In the case of E46S, the “folding stability dG” value came to 4.33 kcal/mol.

In the case of E46H, the “folding stability dG” value came out at 4.53 kcal/mol.

For the variant E46T, the “folding stability dG” value turned out to be 4.36 kcal/mol.

Turning to E46F, the “folding stability dG” value amounted to 4.64 kcal/mol.

In the case of E46I, the “folding stability dG” value was determined as 4.47 kcal/mol.

Regarding L38R, the “folding stability dG” value was determined as 4.34 kcal/mol.

As to L38K, the “folding stability dG” value stood at 4.2 kcal/mol.

As to L38C, the “folding stability dG” value was 4.07 kcal/mol.

L38E: the “folding stability dG” value amounted to 3.89 kcal/mol.

As to L38A, the “folding stability dG” value is 4.52 kcal/mol.

Regarding L38H, the “folding stability dG” value was found to be 4.13 kcal/mol.

For L38D, the “folding stability dG” value turned out to be 3.39 kcal/mol.

Turning to L38S, the “folding stability dG” value is 4.28 kcal/mol.

As to L38P, the “folding stability dG” value amounted to 2.86 kcal/mol.

For the variant L38Y, the “folding stability dG” value is 4.53 kcal/mol.

As for L38F, the “folding stability dG” value came to 4.42 kcal/mol.

In the case of L38V, the “folding stability dG” value amounted to 4.3 kcal/mol.

Take L38M: the “folding stability dG” value turned out to be 4.56 kcal/mol.

For L38W, the “folding stability dG” value stood at 4.52 kcal/mol.

With L38G, the “folding stability dG” value is 3.85 kcal/mol.

Turning to L38N, the “folding stability dG” value came out at 4.15 kcal/mol.

As for L38I, the “folding stability dG” value is 4.29 kcal/mol.

Consider L38Q, for which the “folding stability dG” value turned out to be 4.21 kcal/mol.

Turning to L38T, the “folding stability dG” value stood at 4.16 kcal/mol.

Regarding I47A, the “folding stability dG” value is 4.17 kcal/mol.

With I47M, the “folding stability dG” value turned out to be 4.53 kcal/mol.
